T1: biotinylated-Lag3 (UniProt P18627 23-450, limits assumed, biotinylated (site not stated))
T1 construct: also called LAG-3 (A375 MHC-II ELISA)
T1 sequence (looked up): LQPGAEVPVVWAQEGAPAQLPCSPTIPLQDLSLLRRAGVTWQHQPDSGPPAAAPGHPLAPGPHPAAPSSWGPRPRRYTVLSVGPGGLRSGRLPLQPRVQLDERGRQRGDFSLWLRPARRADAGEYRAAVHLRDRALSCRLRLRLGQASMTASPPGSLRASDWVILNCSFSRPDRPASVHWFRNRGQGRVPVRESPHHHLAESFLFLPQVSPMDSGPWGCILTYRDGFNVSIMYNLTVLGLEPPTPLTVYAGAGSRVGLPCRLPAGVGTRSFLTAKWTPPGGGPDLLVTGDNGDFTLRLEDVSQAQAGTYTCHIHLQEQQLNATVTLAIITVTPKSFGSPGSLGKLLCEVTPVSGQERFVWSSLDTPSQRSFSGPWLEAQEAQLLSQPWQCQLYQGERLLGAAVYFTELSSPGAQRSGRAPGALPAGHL

T2: Lag3 expressed on cells (recombinant CHO cells expressing Lag3; Lag3+ NFAT Jurkat effector cells) (human, UniProt P18627 29-525)
T2 sequence: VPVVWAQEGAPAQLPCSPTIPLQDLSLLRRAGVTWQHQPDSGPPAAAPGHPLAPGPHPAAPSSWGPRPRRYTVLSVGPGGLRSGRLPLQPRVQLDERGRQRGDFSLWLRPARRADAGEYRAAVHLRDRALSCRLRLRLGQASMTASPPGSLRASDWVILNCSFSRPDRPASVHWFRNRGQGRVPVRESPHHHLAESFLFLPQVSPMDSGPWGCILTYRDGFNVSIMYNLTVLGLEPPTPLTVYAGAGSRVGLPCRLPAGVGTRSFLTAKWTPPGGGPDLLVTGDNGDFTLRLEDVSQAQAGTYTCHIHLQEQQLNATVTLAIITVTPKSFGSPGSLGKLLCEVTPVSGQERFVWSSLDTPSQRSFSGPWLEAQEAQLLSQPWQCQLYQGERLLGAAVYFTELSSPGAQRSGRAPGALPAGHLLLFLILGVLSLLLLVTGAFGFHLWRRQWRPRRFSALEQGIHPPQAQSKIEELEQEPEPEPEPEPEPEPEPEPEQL


Assays:
biotinylated-Lag3 = molecular target: T1, biotinylated-Lag3; experiment: competition cell ELISA: antibody pre-incubated with biotinylated Lag3, binding to MHC-II on A375 cells
Experimental: 25 μl/well of A375 cells (10000 cells/well) were seeded into tissue culture treated 384-well plates (Corning, 3701) and incubated at 37° C. overnight. […] After washing (1×90 μl in PBST) cells were fixed by addition of 30 μl/well glutaraldehyde to a final concentration of 0.05% (Sigma Cat.No: G5882), 10 min at room temperature. After washing (3×90 μl/well with PBST-buffer) 25 μl/well Poly-HRP40-Streptavidin (Fitzgerald, 65R-S104PHRPx) was added in a 1:2000 or 1:8000 dilution and incubated at RT for 1 h. After washing (3×90 μl/well with PBST-buffer) 25 μl/well TMB substrate (Roche, 11835033001) was added and incubated for 2 to 10 min. Measurement took place on a Tecan Safire 2 instrument at 370/492 nm.

[1] = molecular target: T2, Lag3 expressed on cells (recombinant …); experiment: cell-based or functional assay
[2] = molecular target: T3, cynomolgus Lag3 on cells (HEK293F cells transiently transfected with cyno-LAG-3); activated cynomolgus PBMC/T … (cynomolgus); experiment: flow cytometry on CD3/CD28-activated cynomolgus PBMC, antibody at 10 ug/ml
T3 construct: whole, on cells
Experimental: Thus, cynomolgus peripheral blood mononuclear cells (PBMC) were prepared from fresh cynomolgus blood and were then activated by CD3/CD28 pre-treatment (1 μg/ml) for 2-3 days. […] After staining, cells were washed two times with PBS/2% FCS and analyzed on a FACS Fortessa (BD).

Binder	IC50 (biotinylated-Lag3) [nM]	EC50 [nM] in Jurkat LAG3 + SED + Raji, 2nd assay [1] [nM]	percentage of Lag3 positive cells [2] [%]	EC50 [nM] in Jurkat LAG3 + SED + Raji, 1st assay [1] [nM]	EC50 [nM] in Jurkat LAG3 + SED + Raji, 3rd assay [1] [nM]
humanized BAP050 (LAG525) (antibody, V domains shown) VH: QIQLVQSGPELKKPGETVKISCKASGFTLTNYGMNWVRQTPGKGLKWMGWINTDTGEPTYADDFKGRFAFSLETSASTASLQINNLKNADTATYFCARNPPYYYGTNNAEAMDYWGQGTTVTVSS VL: DIQMTQTTSSLSASLGDRVTISCSSSQDISNYLMWYQQKPDGTVKVLIYYTSTLHLGVPSRFSGSGSGTDYSLTISNLELEDIATYYCQQYYNLPWTFGQGTKVEIK	1	22.6	50.7	–	–
MDX25F7 (25F7) (antibody, V domains shown, also called Medarex 25F7) VH: QVQLQQWGAGLLKPSETLSLTCAVYGGSFSDYYWNWIRQPPGKGLEWIGEINHNGNTNSNPSLKSRVTLSLDTSKNQFSLKLRSVTAADTAVYYCAFGYSDYEYNWFDPWGQGTLVTVSS VL: EIVLTQSPATLSLSPGERATLSCRASQSISSYLAWYQQKPGQAPRLLIYDASNRATGIPARFSGSGSGTDFTLTISSLEPEDFAVYYCQQRSNWPLTFGQGTNLEIK	–	8.6	22.1	–	–
BMS-986016 (antibody, V domains shown) VH: QVQLQQWGAGLLKPSETLSLTCAVYGGSFSDYYWNWIRQPPGKGLEWIGEINHRGSTNSNPSLKSRVTLSLDTSKNQFSLKLRSVTAADTAVYYCAFGYSDYEYNWFDPWGQGTLVTVSS VL: EIVLTQSPATLSLSPGERATLSCRASQSISSYLAWYQQKPGQAPRLLIYDASNRATGIPARFSGSGSGTDFTLTISSLEPEDFAVYYCQQRSNWPLTFGQGTNLEIK	–	–	18.6	–	–
aLAG3(0411) (antibody, V domains shown, also called aLAG3 (411)) VH: EVHLLESGGGLVQPGGSLRLSCAASGFIVDDYTMNWVRQAPGKGLEWVSVISWDGGATYYADSVKGRFTISRDDFKNTLYLQMNSLRAEDTAVYYCAKGLTDDTLYGSDYWGQGTLVTVSS VL: DIQMTQSPSSLSASVGDRVTITCRASQSIVSYLNWYQQKPGKAPKLLIYASSSLQSGVPSRFSGSGSGTDFTLTISSLQPEDFATYYCQQTYSTPLTFGGGTKVEIK	–	1	46.6	1.1	–
aLAG3(0416) (antibody, V domains shown, also called aLAG3 (416)) VH: EVQLVESGGGLVQPGGSLRLACAASGFTFSDYAMSWVRQAPGKGLEWVSGIDNSGYYTYYTDSVKGRFTISRDDVKNTLYLQMNSLRAEDTAVYLCTKTHSGLIVNDAFDIWGQGTMVTVSS VL: DIQLTQSPSSLSASVGDRVTITCRASQSISSYLNWYQQKPGKAPKLLIYDASSLESGVPSRFSGSGSGTDATLTISSLQPEDFATYYCQQSYSTPLTFGGGTKVEIK	–	2.5	38.9	3.1	3.5
aLAG3(0414) (antibody, V domains shown, also called aLAG3 (414)) VH: EVQLLESGGGLVQPGGSLRLSCAASGFIFDDYTMNWVRQAPGKGLEWVAVISWDGGGTYYTDSVKGRFTISRDDFKNTLYLQMNSLRAEDTAVYYCAKGLTDTTLYGSDYWGQGTLVTVSS VL: DIQMTQSPSSLSASVGDRVTITCRASQSISSYLNWYQQKPGKAPKLLIYAASTLQSGVPSRFSGSGSGTDFTLTISSLQPEDFATYYCQQTYSSPLTFGGGTKVEIK	–	1	43	1.1	1.8
aLAG3(0417) (antibody, V domains shown, also called aLAG3 (417)) VH: EVQLVESGGGLVQPGGSLRLACAASGFTFSDYAMSWVRQAPGKGLEWVSGIDNSGYYTYYTDSVKGRFTISRDDVKNTLYLQMNSLRAEDTAVYLCTKTHSGLIVNDAFDIWGQGTMVTVSS VL: not shown	–	–	35.3	1	–
aLAG3(0403) (antibody, V domains shown, also called anti-Lag3 aLAG3 (0403)) VH: EVQLLESGGGLVQPGGSLRLSCAASGFTFDDYTMHWVRQAPGKGLEWVSLVSWDGGGTYYTNSVKGRFTISRDNSKNTLYLQMNSLRAEDTAVYFCAKAITDTSLYGYDYWGQGILVTVSS VL: not shown	–	–	44.2	–	–

From patent publication US20250313629A1 (Hoffmann-La Roche, published 2025)
